According to paper PMC2148147 (The Journal of Cell Biology, 1998):
Values belong to the binder of their own block, whether it stands above or below them.

Biological target: T1, Cdc3p (S. cerevisiae, UniProt P32457 1-520)
T1 sequence: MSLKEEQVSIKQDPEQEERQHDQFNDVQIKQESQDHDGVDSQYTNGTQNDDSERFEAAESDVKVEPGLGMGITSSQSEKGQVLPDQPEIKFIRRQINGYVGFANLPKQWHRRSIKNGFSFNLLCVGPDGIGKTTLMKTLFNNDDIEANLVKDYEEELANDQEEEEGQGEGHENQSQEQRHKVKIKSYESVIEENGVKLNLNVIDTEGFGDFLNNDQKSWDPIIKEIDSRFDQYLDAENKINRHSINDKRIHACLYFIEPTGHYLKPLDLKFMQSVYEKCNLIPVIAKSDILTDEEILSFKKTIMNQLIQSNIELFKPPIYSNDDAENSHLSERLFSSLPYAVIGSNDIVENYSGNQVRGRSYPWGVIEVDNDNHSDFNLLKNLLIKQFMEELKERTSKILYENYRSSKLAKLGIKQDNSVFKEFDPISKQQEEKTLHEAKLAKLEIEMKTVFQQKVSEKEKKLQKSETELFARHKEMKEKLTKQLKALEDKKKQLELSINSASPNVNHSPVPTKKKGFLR
Assay: SEC + other: sucrose gradient sedimentation

stoichiometry N: ~0.5 Cdc11p per Cdc3p (1:2)
B1: Cdc11p (natural protein)
chain: MSGIIDASSALRKRKHLKRGITFTVMIVGQSGSGRSTFINTLCGQQVVDTSTTILLPTDTSTEIDLQLREETVELEDDEGVKIQLNIIDTPGFGDSLDNSPSFEIISDYIRHQYDEILLEESRVRRNPRFKDGRVHCCLYLINPTGHGLKEIDVEFIRQLGSLVNIIPVISKSDSLTRDELKLNKKLIMEDIDRWNLPIYNFPFDEDEISDEDYETNMYLRTLLPFAIIGSNEVYEMGGDVGTIRGRKYPWGILDVEDSSISDFVILRNALLISHLHDLKNYTHEILYERYRTEALSGESVAAESIRPNLTKLNGSSSSSTTTRRNTNPFKQSNNINNDVLNPASDMHGQSTGENNETYMTREEQIRLEEERLKAFEERVQQELLLKRQELLQREKELREIEARLEKEAKIKQEE

stoichiometry N: ~1 Cdc10p per Cdc3p (2:2)
B2: Cdc10p (natural protein)
chain: MDPLSSVQPASYVGFDTITNQIEHRLLKKGFQFNIMVVGQSGLGKSTLINTLFASHLIDSATGDDISALPVTKTTEMKISTHTLVEDRVRLNINVIDTPGFGDFIDNSKAWEPIVKYIKEQHSQYLRKELTAQRERFITDTRVHAILYFLQPNGKELSRLDVEALKRLTEIANVIPVIGKSDTLTLDERTEFRELIQNEFEKYNFKIYPYDSEELTDEELELNRSVRSIIPFAVVGSENEIEINGETFRGRKTRWSAINVEDINQCDFVYLREFLIRTHLQDLIETTSYIHYEGFRARQLIALKENANSRSSAHMSSNAIQR

stoichiometry N: ~1 Cdc12p per Cdc3p (2:2)
B3: Cdc12p (natural protein)
chain: MSAATATAAPVPPPVGISNLPNQRYKIVNEEGGTFTVMLCGESGLGKTTFINTLFQTVLKRADGQQHRQEPIRKTVEIDITRALLEEKHFELRVNVIDTPGFGDNVNNNKAWQPLVDFIDDQHDSYMRQEQQPYRTKKFDLRVHAVLYFIRPTGHGLKPIDIETMKRLSTRANLIPVIAKADTLTAQELQQFKSRIRQVIEAQEIRIFTPPLDADSKEDAKSGSNPDSAAVEHARQLIEAMPFAIVGSEKKFDNGQGTQVVARKYPWGLVEIENDSHCDFRKLRALLLRTYLLDLISTTQEMHYETYRRLRLEGHENTGEGNEDFTLPAIAPARKLSHNPRYKEEENALKKYFTDQVKAEEQRFRQWEQNIVNERIRLNGDLEEIQGKVKKLEEQVKSLQVKKSHLK
